Tests used:
[1] = target: recombinant α-secretase N-terminal soluble form of APP695 (sAPPα^695) (human); test: AUC; sedimentation velocity, 50,000 rpm, absorbance at 280 nm, c(S) model (Sedfit); APP 2.5 μM with holo-Lf 2.5, 3.75, 5 μM or apo-Lf 2.5, 12.5 μM; weight average sedimentation coefficients fitted to a two-site binding model
[2] = target: recombinant α-secretase N-terminal soluble form of APP695 (sAPPα^695) (human); test: other fluorescence titration; native tryptophan fluorescence, excitation 295 nm, change of intensity at 340 nm against Lf concentration, fitted to two independent sites on an acceptor; 96-well quartz microplate

Kd1:1 (first site, two-site binding model) [1]: 620 nM
Kd1:2 (second site, two-site binding model) [1]: 8.2 µM
stoichiometry N (Lf molecules per sAPPα695 molecule) [1]: 2
Kd1:1 (first site, two-site model) [2]: 690 nM
Kd1:2 (second site, two-site model) [2]: 9.4 µM
Substance: holo-lactoferrin (iron-bound form of Lf) (natural protein)

From publication PMC8758478
